Experimental data: patent publication US5508261

Columns and labels:
[1] = target: bovine testes FSH receptors (bovine) (UniProt P35376); test: inhibition of 125I-hFSH binding to bovine testes FSH receptors
[2] = target: rat luteal ovarian LH receptors (rat) (UniProt P16235); test: inhibition of 125I-hCG binding to rat luteal ovarian LH receptors

Substance: eCG (ligand)
- activity relative to hFSH (FSH RECEPTORS; ratio of concentrations for 50% inhibition) (relative to recombinant hFSH) [1]: 0.18
- activity relative to hCG (LH RECEPTORS; ratio of concentrations for 50% inhibition) (relative to recombinant hCG) [2]: 0.53
